Experiment in all cases: co-immunoprecipitation (HA-specific IP), Western blot densitometry
(In general: A western blot detects proteins with antibodies after separation by electrophoresis.)

The target of one experiment is NS3 Q221L of JFH1. The settings on record: W35F-NS3 genome; Huh7.5 cells, harvested 72 h later; two independent experiments; read off a plot.
In the next experiment the target is E2 V341A of JFH1. The settings on record: F77A-E2 genome; Huh7.5 cells, harvested 72 h later; two independent experiments; read off a plot.
Experiment [1] has as its target nonstructural protein 3 (NS3) of JFH1 (UniProt Q99IB8). The settings on record: Huh7.5 cells transfected with full-length genome, harvested 72 h later; two independent experiments; read off a plot.
Experiment [2] has as its target envelope glycoprotein E2 of JFH1 (UniProt Q99IB8). The settings on record: harvested 72 h later, two independent experiments, read off a plot.
The target in experiment [3] is nonstructural protein 5A (NS5A) of JFH1mut4-6 (UniProt Q99IB8). The settings on record: Huh7.5 cells transfected with full-length genome, harvested 72 h later; two independent experiments; read off a plot.
For a further experiment, the target named is p7 of JFH1 (UniProt Q99IB8). The settings on record: Huh7.5 cells transfected with full-length genome, harvested 72 h later; two independent experiments; read off a plot.

Regarding m1; m4 NS2:W35F; NS3:Q221L, the percent of parent with NS3 Q221L of JFH1 came out at 52%.
For m1; m2 NS2:F77A; E2:V341A, in the experiment with E2 V341A of JFH1, the percent of parent stood at 89%.
In the case of “HA- and Flag-tagged NS2 of JFH1mut4-6 (HAF-NS2) (from UniProt Q99IB8) CT1.h”, the percent of parent in experiment [1] was found to be 26%; in experiment [2] (Huh7.5 cells transfected with full-length genome) it was 30%; in experiment [2] (genome also carries the pseudoreversion p7-E3D (CT1.h-p7), Huh7.5 cells) it was 84%; in experiment [3], 56%; with p7 of JFH1 it was 23%.

The values are drawn from PMC3002993.
